± gives the standard deviation.
Test: protein stability index of a GFP-peptide fusion (GPS, HEK-293T) (PSI 1-6); higher = more stable
[1] = treatment: DMSO, c terminus: a fixed tail appended
[2] = treatment: MLN4924 1 uM, 8 h, c terminus: a fixed tail appended
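Further: 24-mer peptide tiles fused after GFP, lentivirally expressed, FACS-sorted into six equal bins by GFP/DsRed ratio, decoded by Illumina sequencing, PSI is the read-weighted mean bin number.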

Row | Sequence | protein stability index [1] | protein stability index [2] | protein stability index (treatment: DMSO, c terminus: native) | protein stability index (treatment: MLN4924 1 uM, 8 h, c terminus: native)
1 | CRYPYEYEGGHIKGAVNLHMEEEV [CDC25A] | 3.8 ± 0.34 | 3.7 ± 0.33 | – | –
2 | CSECGESFSRSSRLMSHQRTHTG [ZNF263] | – | – | 3.02 ± 0.6 | 3.53 ± 0.95
3 | CSSCQRSWASAQVQILCHTYWEHW [RTP4] | 2.3 ± 0.52 | 2.36 ± 0.28 | – | –
4 | CSSSTRSVLKRPERSQEESPPGST [CDC25A] | 5.17 ± 0.21 | 4.95 ± 0.34 | – | –
5 | CYMATTKSQTACLPFVLAAAVSRK [EHMT1] | 2.14 ± 0.3 | 2.15 ± 0.15 | – | –
6 | DCSEEYLERQLQAEFIESGQYRAN [TAF7L] | 4.09 ± 0.35 | 4.3 ± 0.12 | – | –
7 | DDEEFEYRHVMLPKDIAKLVPKTH [CKS1B] | 4.38 ± 0.23 | 4.39 ± 0.32 | – | –
8 | DDHECCERVVINISGLRFETQLKT [KCNA1] | 2.79 ± 0.3 | 2.61 ± 0.25 | – | –
9 | DDMLLFDEQEKGIVTKFYQLSATG [FAN1] | 3.57 ± 0.3 | 3.46 ± 0.2 | – | –
10 | DDYLHKDTGETSMLKRPVLLHLHQ [STEAP1] | 3.31 ± 0.21 | 3.17 ± 0.16 | – | –
11 | DEGGFTCFFRDHSYQEEAAMELKV [MOG] | 3.57 ± 0.26 | 3.7 ± 0.34 | – | –
12 | DERAMELLIDFAYTSQITVEEGNV [KLHL20] | 2.54 ± 0.21 | 3.04 ± 0.2 | – | –
13 | DESVVMPESQMCRKFSRECEDQKQ [NEUROD6] | 5.46 ± 0.3 | 5.43 ± 0.24 | – | –
14 | DGISIPELREACDYLCISFEYSTI [BTBD10] | 3.18 ± 0.93 | 2.87 ± 0.56 | – | –
15 | DGLPDLGHAQDLMDGLPPGDSNQL [CTNNB1] | 5.33 ± 0.26 | 5.4 ± 0.19 | – | –
16 | DGVEVDDSYCDALTRPEPVHEFCA [ADAMTSL2] | 4.57 ± 0.23 | 4.86 ± 0.24 | – | –
17 | DKFIEDYLLPDTCFRMQINHAIDI [OAS1] | 2.59 ± 0.36 | 2.17 ± 0.44 | – | –
18 | DKGGRVVIFQREQESKNQVHRRGE [PPP2R2B] | 4.59 ± 0.32 | 4.95 ± 0.29 | – | –
19 | DKNTLKDHMRKKQHRKINPKNREY [ZNF277] | 3.3 ± 0.33 | 3.28 ± 0.35 | – | –
20 | DKQKLKRTEIISRSWFPSAPGSAS [YJU2B] | 3.56 ± 0.21 | 3.71 ± 0.12 | – | –
21 | DLAWMITFYVRFFLTYVPLLGLKA [FADS1] | 3.03 ± 0.11 | 3.62 ± 0.23 | – | –
22 | DLIDVREVMERDAKDYADSIHAIF [RAB22A] | 3.16 ± 0.042 | 3.23 ± 0.38 | – | –

Row | Sequence | protein stability index [1] | protein stability index [2] | protein stability index (treatment: DMSO, c terminus: native) | protein stability index (treatment: MLN4924 1 uM, 8 h, c terminus: native)
23 | DLPINVFKLLAGRWPFDHNDFGVF [EDNRA] | 2.19 ± 0.7 | 2.19 ± 0.45 | – | –
24 | DLRADDLPGPAFESYESMELACPA [KLHDC2] | 4.84 ± 0.11 | 4.72 ± 0.34 | – | –
25 | DMLIREVVEKRLCMYEHGEDTHQS [RSPH3] | 3.7 ± 0.26 | 3.85 ± 0.28 | – | –
26 | DNAPVFTLPEYRVSVPENLPVGTQ [PCDHGA10] | 4.54 ± 0.17 | 4.45 ± 0.26 | – | –
27 | DPHSGHFVALKSVRVPNGGGGGGG [CDK4] | 4.01 ± 0.12 | 3.87 ± 0.33 | – | –
28 | DQEMARDLVERALYSMECAFHPLF [TCF25] | 2.35 ± 0.34 | 2.09 ± 0.35 | – | –
29 | DQIEDMFEQGKWDVFSENLLADVK [STX11] | 3.75 ± 0.14 | 3.76 ± 0.3 | – | –
30 | DQKVIELVKKYGTKQWTLIAKHLK [MYBL2] | 2.77 ± 0.91 | 3.12 ± 0.49 | – | –
31 | DQLIGQGIIVKDARLNGSVASYIL [TENT5D] | 2.3 ± 0.33 | 2.19 ± 0.45 | – | –
32 | DRQYDSRGRFGELLLLLPTLQSIT [HNF4A] | 2.35 ± 0.47 | 2.17 ± 0.21 | – | –
33 | DRSVQRLLATRIAVYLMTFLIVTV [TMEM175] | 3.15 ± 0.3 | 3.31 ± 0.31 | – | –
34 | DRVVAFMDHIRIFQEQVEKLKALH [NR2F2] | 2.28 ± 0.36 | 2.22 ± 0.36 | – | –
35 | DSASLPRKPSVPWQRQMDQPQDRN [RASAL3] | 4.65 ± 0.22 | 4.78 ± 0.23 | – | –
36 | DSEDFPQAAKQIKDGVTMAPAFRL [FSD1] | 4.24 ± 0.11 | 4.33 ± 0.28 | – | –
37 | DSPENGADSFESSDSLLQSWNSQS [ETS2] | 5.11 ± 0.16 | 5.14 ± 0.15 | – | –
38 | DSPENMMRHIRFLKNEVERLKKQL [CCDC6] | 4.18 ± 0.31 | 4.45 ± 0.35 | – | –
39 | DSSLHWSSSYSPETFRQQFRQFGY [ZNF396] | 2.66 ± 0.31 | 2.56 ± 0.15 | – | –
40 | DTLISQESCEKNDPLSLLDDSKFP [PCDHGA10] | 5.05 ± 0.18 | 4.93 ± 0.2 | – | –
41 | DYLTVKVWDLNMEARPIETYQVHD [PPP2R2C] | 2.69 ± 0.34 | 2.86 ± 0.16 | – | –
42 | DYLYTKQLSPNLDLDPLELIALAN [RHOBTB1] | 2.31 ± 0.28 | 2.3 ± 0.33 | – | –
43 | DYNQAEMKQRDNCKIRIQRQLEIM [STX11] | 2.9 ± 0.19 | 3.15 ± 0.31 | – | –
44 | EAASFLQILPVLDFCKVFLISGVT [KLHL13] | 3.43 ± 0.78 | 2.96 ± 0.13 | – | –

Row | Sequence | protein stability index [1] | protein stability index [2] | protein stability index (treatment: DMSO, c terminus: native) | protein stability index (treatment: MLN4924 1 uM, 8 h, c terminus: native)
45 | EAIQPYRDRLRSRLEALSTERDEI [TRIM15] | 4.61 ± 0.12 | 4.52 ± 0.14 | – | –
46 | EARARARANRGILQQERQRLGQRQ [DNAJC4] | 4.74 ± 0.28 | 4.65 ± 0.14 | – | –
47 | EARFIRRSCTPNAEVRHEIQDGTI [KMT2E] | 4.34 ± 0.67 | 4.27 ± 0.11 | – | –
48 | EDIDTSMYDNELWAPASEGLKPGP [SERTAD1] | 4.84 ± 0.19 | 4.76 ± 0.17 | – | –
49 | EECIPEHMVRESKIMEAESQKATR [FAN1] | 5.12 ± 0.77 | 4.72 ± 1.2 | – | –
50 | EEDRPLGGGEGHQPAGNRRGQARR [BEX3] | 5.72 ± 0.14 | 5.563 ± 0.048 | – | –
51 | EEEDREEEDENGLPRRRGLRKKKT [NEUROD6] | 5.53 ± 0.59 | 5.52 ± 0.37 | – | –
52 | EEEEEATNTHPPASLPSQKYPGPQ [CHGA] | 5.61 ± 0.16 | 5.54 ± 0.17 | – | –
53 | EELQNKILTATVDNANILLQIDNA [KRT17] | 4.03 ± 0.095 | 4.3 ± 0.053 | – | –
54 | EEPAEKEDLLQQMLERRYTPYPNL [CLCN6] | 4.4 ± 0.19 | 4.44 ± 0.37 | – | –
55 | EESFRQMVVIHKEIPTGKKDHECS [ZNF232] | 4.84 ± 0.31 | 4.77 ± 0.11 | – | –
56 | EEVSEVESFILDQDDLENPMLETA [ANKRD17] | 5.69 ± 0.23 | 5.16 ± 0.57 | – | –
57 | EFDDGSGSVLRIQPLRTPRDEAIY [PTPRD] | 3.47 ± 0.11 | 3.88 ± 0.54 | – | –
58 | EFTIRDLQRLGELQSELAGVADFS [INTS4] | 3.3 ± 0.17 | 3.42 ± 0.48 | – | –
59 | EFVNGWYILLVTSDVLTISGTIMK [MCOLN1] | 3.06 ± 0.26 | 3.08 ± 0.33 | – | –
60 | EGKSRHVDFQCVKSKSITNLAAAA [BTBD10] | 3.48 ± 0.43 | 3.9 ± 0.28 | – | –
61 | EGRFWKSKNEDRGEEEAESSISST [ZMYND11] | 5.65 ± 0.2 | 5.71 ± 0.13 | – | –
62 | EGYKDADYWLRRFEAEPLPENTNR [PI4K2A] | 4.52 ± 0.13 | 4.41 ± 0.16 | – | –
63 | EHERAHRGEKPHGCSLCGKAFYKR [ZNF649] | 2.79 ± 0.11 | 3.45 ± 0.59 | – | –
64 | EHKSLTGTARYMSINTHLGKEQSR [CSNK1G3] | 4.02 ± 0.095 | 3.82 ± 0.38 | – | –
65 | EHTGEVRTARALLDRDALKQSLVV [PCDHGA10] | 3.23 ± 0.2 | 3.3 ± 0.26 | – | –
66 | EHVSRALCIHTGRELRCKVFPIKH [TRIB1] | 2.21 ± 0.13 | 2.61 ± 0.3 | – | –

Row | Sequence | protein stability index [1] | protein stability index [2] | protein stability index (treatment: DMSO, c terminus: native) | protein stability index (treatment: MLN4924 1 uM, 8 h, c terminus: native)
67 | EIDSVPKTQSELASESEHIPKPQS [MIA2] | 5.42 ± 0.26 | 5.49 ± 0.2 | – | –
68 | EIVVTISWAKSIPGFSSLSLSDQM [ESRRA] | 3.19 ± 0.5 | 2.59 ± 0.22 | – | –
69 | EKAMAEWVKQQAEREAEKEQKRLE [SDE2] | 5.5 ± 0.34 | 5.57 ± 0.18 | – | –
70 | EKRGFTSHFVFVIEVKTKGGSKYL [NCF4] | 3.02 ± 1.1 | 3.64 ± 1.1 | – | –
71 | EKVEVQLPELFHKIGVGAMTWSPL [KCNAB2] | 2.45 ± 0.26 | 2.51 ± 0.16 | – | –
72 | ELCRDAAQFRLLSEVEELNMSLTA [TEKT4] | 2.85 ± 0.34 | 2.77 ± 0.28 | – | –
73 | ELLKEAELIRNIQELLKRTIMQAV [TEKT4] | 2.4 ± 0.2 | 2.27 ± 0.31 | – | –
74 | ELPKPEVISQLEQGTELWVAERGT [ZNF8] | 4.76 ± 0.17 | 4.82 ± 0.66 | – | –
75 | ELRDISSMAMEYFDEKIVPILKRK [FBXO28] | 2.78 ± 0.36 | 3 ± 0.45 | – | –
76 | ELSNFKSQKVLGLNEDPLKWWSDR [ZBED1] | 2.73 ± 0.17 | 2.97 ± 0.26 | – | –
77 | ELVHFLLLKYRAREPVTKAEMLGS [MAGEA3] | 2.54 ± 0.63 | 2.73 ± 0.92 | – | –
78 | ELVPHPETAPTTVDRTHALMKKIG [CRYL1] | 4.31 ± 0.23 | 4.48 ± 0.35 | – | –
79 | ENGSVSSSETPPPPPPPNEINPPP [EIF5] | 5.32 ± 0.18 | 5.35 ± 0.17 | – | –
80 | ENLEGVPSVCSENIHPQVLLPDQA [ZNF263] | 5 ± 0.39 | 4.96 ± 0.11 | – | –
81 | ENQRLFEMLGRKCLTLATAVVQLY [WAS] | 2.26 ± 0.21 | 2.44 ± 0.33 | – | –
82 | EPDANFPQFLHEGLSKPVYVINWF [FAM104B] | 2.37 ± 0.43 | 2.48 ± 0.36 | – | –
83 | EPVAEIGVGAYGTVYKARDPHSGH [CDK4] | 4.11 ± 0.32 | 4.1 ± 0.28 | – | –
84 | EPVIKVAAIDNGLAFPLKHPDSWR [PI4K2A] | 3.41 ± 0.28 | 3.02 ± 0.23 | – | –
85 | EQGFSQSFTQEQVADIDGQYAMTR [CTNNB1] | 4.86 ± 0.083 | 4.61 ± 0.16 | – | –
86 | EQHAGTSEGLHLAGTAGHPPSGSQ [FBF1] | 5.19 ± 0.3 | 5.2 ± 0.15 | – | –
87 | EQLQQILKRKNKQAFLDELESSDL [MNAT1] | 3.48 ± 0.46 | 3.73 ± 0.39 | – | –
88 | EQTCDPDSSLHWSSSYSPETFRQQ [ZNF396] | 4.43 ± 0.12 | 4.58 ± 0.12 | – | –
